Results: patent US20210340530A1 (INTELLIA THERAPEUTICS, published 2021)

Key:
[1] = biological target: T1, … (VLD) WT1 peptide pulsed on target cells (HLA-02.01 positive T2 cell line; OCI-AML3); assay: cell-based or functional assay
[2] = biological target: T2, … (RMF) WT1 peptide pulsed on target cells (HLA-02.01 positive T2 cell line; OCI-AML3); assay: cell-based or functional assay
[3] = biological target: T1, … (VLD) WT1 peptide pulsed on target …; assay: cell-based or functional assay; remark: listed apart in the source
[4] = biological target: T2, … (RMF) WT1 peptide pulsed on target …; assay: cell-based or functional assay; remark: listed apart in the source
[5] = biological target: T1, … (VLD) WT1 peptide pulsed on target …; assay: cell-based or functional assay; remark: listed apart in the source
[6] = biological target: T1, … (VLD) WT1 peptide pulsed on target …; assay: cell-based or functional assay; remark: listed apart in the source
[7] = biological target: T2, … (RMF) WT1 peptide pulsed on target …; assay: cell-based or functional assay; remark: listed apart in the source
[8] = biological target: T3, VLD-Tetramer (pMHC tetramer with WT1 peptide …); assay: flow cytometry, VLD-Tetramer staining of engineered T cells; TRAC + TRBC RNP
T3 construct: Staining reagent; also called VLD (Wilms' tumor antigen) tetramer; TCR specific pMHC tetramer
Protocol: (§1) Four to 12 days after RNP nucleofection, edited T cells (200 ul/200,000 cells) were collected in a 96 well round bottom plate and spun down at 500 g for 5 minutes. Cells were then resuspended in an antibody mixture containing a combination of antibodies targeting CD3, CD4, CD8, CD45RO, CD45RA, CD27, CCR7, CD62L, and/or the TCR specific pMHC tetramer or TCR specific Vbeta chain antibody. The mixture was incubated for 45 minutes at room temperature in the dark. Samples were spun down at 500 g for 5 minutes, cell pellets collected, and resuspended in 1:10,000 DAPI (Biolegend—#422801) in FACS buffer. Flow cytometry was then performed using the cytoflex according to the manufacturer's instructions.
(§2) T cells were evaluated with additional engineered TCRs for the impact of endogenous beta chains on pairing of both the inserted alpha chain and inserted beta chain. The experiment was performed as described herein except tetramer staining was used to measure MFI and the AAV inserts in Table 31 were used for transduction.

[9] = biological target: T3, VLD-Tetramer (pMHC tetramer with WT1 …); assay: flow cytometry, VLD-Tetramer staining of engineered T cells; TRAC RNP only
Protocol: as §1, §2

[10] = biological target: T1, … (VLD) WT1 peptide pulsed on target …; assay: cell-based or functional assay; remark: listed apart in the source

B1: TCR-H (WT1-specific T-cell receptor) (TCR, V domains shown)
V domain 1: RKEVEQDPGPFNVPEGATVAFNCTYSNSASQSFFWYRQDCRKEPKLLMSVYSSGNEDGRFTAQLNRASQYISLLIRDSKLSDSATYLCVVKPDPGAGSYQLTFGKGTKLSVIP
V domain 2: NAGVTQTPKFRVLKTGQSMTLLCAQDMNHEYMYWYRQDPGMGLRLIHYSVGEGTTAKGEVPDGYNVSRLKKQNFLLGLESAAPSQTSVYFCASRGYHRLNNEQFFGPGTRLTVLE
notes: also called AV16-TCR-H
- Caspase 3/7 integrated intensity; TRAC only; 0 nM VLD; T2 [1]: 6560
- Caspase 3/7 integrated intensity; TRAC only; 0.005 nM VLD; T2 [1]: 7650
- Caspase 3/7 integrated intensity; TRAC only; 0.05 nM VLD; T2 [1]: 23600
- Caspase 3/7 integrated intensity; TRAC only; 0.5 nM VLD; T2 [1]: 550000
- Caspase 3/7 integrated intensity; TRAC only; 5 nM VLD; T2 [1]: 992000
- Caspase 3/7 integrated intensity; TRAC only; 50 nM VLD; T2 [1]: 1.08e+06
- Caspase 3/7 integrated intensity; TRAC only; 500 nM VLD; T2 [1]: 1.18e+06
- Caspase 3/7 integrated intensity; TRAC/TRBC; 0 nM VLD; T2 [1]: 7390
- Caspase 3/7 integrated intensity; TRAC/TRBC; 0.005 nM VLD; T2 [1]: 9820
- Caspase 3/7 integrated intensity; TRAC/TRBC; 0.05 nM VLD; T2 [1]: 32400
- Caspase 3/7 integrated intensity; TRAC/TRBC; 0.5 nM VLD; T2 [1]: 628000
- Caspase 3/7 integrated intensity; TRAC/TRBC; 5 nM VLD; T2 [1]: 984000
- Caspase 3/7 integrated intensity; TRAC/TRBC; 50 nM VLD; T2 [1]: 1.08e+06
- Caspase 3/7 integrated intensity; TRAC/TRBC; 500 nM VLD; T2 [1]: 1.18e+06
- Caspase 3/7 integrated intensity; TRAC only; 500 nM RMF; T2 [2]: 4190
- Caspase 3/7 integrated intensity; TRAC/TRBC; 500 nM RMF; T2 [2]: 3890
- % CD4+ CD107a+; TRAC/TRBC; 0 nM VLD; T2 [3]: 3.42%
- % CD4+ CD107a+; TRAC/TRBC; 0.005 nM VLD; T2 [3]: 3.63%
- % CD4+ CD107a+; TRAC/TRBC; 0.05 nM VLD; T2 [3]: 4.48%
- % CD4+ CD107a+; TRAC/TRBC; 0.5 nM VLD; T2 [3]: 6.82%
- % CD4+ CD107a+; TRAC/TRBC; 5 nM VLD; T2 [3]: 8.09%
- % CD4+ CD107a+; TRAC/TRBC; 50 nM VLD; T2 [3]: 8.28%
- % CD8+ CD107a+; TRAC/TRBC; 0 nM VLD; T2 [3]: 2.29%
- % CD8+ CD107a+; TRAC/TRBC; 0.005 nM VLD; T2 [3]: 5.05%
- % CD8+ CD107a+; TRAC/TRBC; 0.05 nM VLD; T2 [3]: 23.6%
- % CD8+ CD107a+; TRAC/TRBC; 0.5 nM VLD; T2 [3]: 45.6%
- % CD8+ CD107a+; TRAC/TRBC; 5 nM VLD; T2 [3]: 60.7%
- % CD8+ CD107a+; TRAC/TRBC; 50 nM VLD; T2 [3]: 70.5%
- % CD4+ CD107a+; TRAC/TRBC; 50 nM RMF; T2 [4]: 3.7%
- % CD8+ CD107a+; TRAC/TRBC; 50 nM RMF; T2 [4]: 2.64%
- IL2 release; TRAC only; 0 nM VLD; T2 [5]: 102 pg/mL
- IL2 release; TRAC only; 0.005 nM VLD; T2 [5]: 44 pg/mL
- IL2 release; TRAC only; 0.05 nM VLD; T2 [5]: 2 pg/mL
- IL2 release; TRAC only; 0.5 nM VLD; T2 [5]: 23 pg/mL
- IL2 release; TRAC only; 5 nM VLD; T2 [5]: 175 pg/mL
- IL2 release; TRAC only; 50 nM VLD; T2 [5]: 111 pg/mL
- IL2 release; TRAC only; 500 nM VLD; T2 [5]: 387 pg/mL
- IL2 release; TRAC/TRBC; 0 nM VLD; T2 [5]: 17 pg/mL
- IL2 release; TRAC/TRBC; 0.005 nM VLD; T2 [5]: 15 pg/mL
- IL2 release; TRAC/TRBC; 0.05 nM VLD; T2 [5]: 40 pg/mL
- IL2 release; TRAC/TRBC; 0.5 nM VLD; T2 [5]: 17 pg/mL
- IL2 release; TRAC/TRBC; 5 nM VLD; T2 [5]: 30 pg/mL
- IL2 release; TRAC/TRBC; 50 nM VLD; T2 [5]: 286 pg/mL
- IL2 release; TRAC/TRBC; 500 nM VLD; T2 [5]: 455 pg/mL
- % CD4+ TNFa+ IFNg+; TRAC/TRBC; 0 nM VLD; T2 [6]: 3.1%
- % CD4+ TNFa+ IFNg+; TRAC/TRBC; 0.005 nM VLD; T2 [6]: 2.1%
- % CD4+ TNFa+ IFNg+; TRAC/TRBC; 0.05 nM VLD; T2 [6]: 3%
- % CD4+ TNFa+ IFNg+; TRAC/TRBC; 0.5 nM VLD; T2 [6]: 4.4%
- % CD4+ TNFa+ IFNg+; TRAC/TRBC; 5 nM VLD; T2 [6]: 6%
- % CD4+ TNFa+ IFNg+; TRAC/TRBC; 50 nM VLD; T2 [6]: 6.9%
- % CD8+ TNFa+ IFNg+; TRAC/TRBC; 0 nM VLD; T2 [6]: 0.5%
- % CD8+ TNFa+ IFNg+; TRAC/TRBC; 0.005 nM VLD; T2 [6]: 3.7%
- % CD8+ TNFa+ IFNg+; TRAC/TRBC; 0.05 nM VLD; T2 [6]: 27.1%
- % CD8+ TNFa+ IFNg+; TRAC/TRBC; 0.5 nM VLD; T2 [6]: 48.7%
- % CD8+ TNFa+ IFNg+; TRAC/TRBC; 5 nM VLD; T2 [6]: 67.5%
- % CD8+ TNFa+ IFNg+; TRAC/TRBC; 50 nM VLD; T2 [6]: 79.2%
- % CD4+ TNFa+ IFNg+; TRAC/TRBC; 50 nM RMF; T2 [7]: 2.9%
- % CD8+ TNFa+ IFNg+; TRAC/TRBC; 50 nM RMF; T2 [7]: 0.6%
- Mean % Tetramer+ (CD4+) [8]: 80.2%
- Mean % Tetramer+ (CD8+) [8]: 77.1%
- Mean Tetramer MFI (CD4+) [8]: 131000 MFI
- Mean Tetramer MFI (CD8+) [8]: 139000 MFI
- Mean % Tetramer+ (CD4+) [9]: 71.7%
- Mean % Tetramer+ (CD8+) [9]: 68.8%
- Mean Tetramer MFI (CD4+) [9]: 64300 MFI
- Mean Tetramer MFI (CD8+) [9]: 75200 MFI
- IFN-gamma release; TRAC/TRBC; 50 nM VLD; T2 [10]: 16100
- IFN-gamma release; TRAC/TRBC; 500 nM VLD; T2 [10]: 24400
- IFN-gamma release; only TRAC; 50 nM VLD; T2 [10]: 15900
- IFN-gamma release; only TRAC; 500 nM VLD; T2 [10]: 24300
